# Laboratory results as given in patent US7169901 (Genentech, dated 2007).
# B1: Y0313-1 (Fab, V domains shown)
# VH: EVQLVESGGGLVQPGGSLRLSCAASGYDFTHYGMNWVRQAPGKGLEWVGWINTYTGEPTYAADFKRRFTFSLDTSKSTAYLQMNSLRAEDTAVYYCAKYPYYYGTSHWYFDVWGQGTL
# VL: DIQLTQSPSSLSASVGDRVTITCRANEQLSNYLNWYQQKPGKAPKVLIYFTSSLHSGVPSRFSGSGSGTDFTLTISSLQPEDFATYYCQQYSTVPWTFGQGTKVEIKR
# Biological target: rhVEGF165 (human, UniProt P15692 27-191, limits assumed)
# Assay: cell-based or functional assay
# Chain of rhVEGF165 (P15692 other isoform, or with tags, fused parts or gaps limits assumed): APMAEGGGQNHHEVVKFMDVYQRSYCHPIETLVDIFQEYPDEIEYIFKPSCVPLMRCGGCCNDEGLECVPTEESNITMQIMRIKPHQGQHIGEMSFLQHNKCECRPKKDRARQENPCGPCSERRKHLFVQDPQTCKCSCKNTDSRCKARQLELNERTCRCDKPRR
binder,measurement,value
B1,"potency in inhibiting VEGF-induced HuVEC growth ([3H]-thymidine), relative to Y0192 Fab",30 fold
